Measurements as given in the supplement of paper PMC9732359.
± gives the uncertainty stated by the source.

Assay: protein stability index of a GFP-peptide fusion (yeast GPS) (PSI 1-4); higher = more stable; sorted into four equal gates, so the index is relative within each strain
Outline: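 The protein stability index of a peptide was calculated by multiplying its read frequency in each gate by that gate's number and adding the products. The peptides were tiled 17-residue stretches of yeast proteins, fused downstream of GFP on a Cherry-expressing plasmid and carried in yeast as a pooled library. Mid-log cultures in leucine-free medium were sorted into four equal gates by GFP/Cherry ratio, and each gate's plasmids were PCR-amplified and Illumina-sequenced.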

Row | Sequence | protein stability index (pdr5∆) | protein stability index (san1∆) | protein stability index (ubr1∆) | protein stability index (doa10∆)
1 | HLIPNEIKGASETPLQK [RPN4] | 1.57 ± 0.12 | 1.55 ± 0.13 | 1.91 ± 0.11 | –
2 | HLRYQPDGVVVHRDDPA [SNF6] | 3.29 ± 0.1 | 2.94 ± 0.082 | 3.28 ± 0.08 | 2.91 ± 0.12
3 | HLSSKTGLHFGRLSLRS [QCR10] | 3.06 ± 0.11 | 3.06 ± 0.11 | 3.14 ± 0.12 | 3.24 ± 0.2
4 | HMADAKIMPKDILQITK [SIR4] | 3.29 ± 0.068 | 2.87 ± 0.071 | 2.95 ± 0.063 | 2.99 ± 0.072
5 | HMAKGLYYGSYRSPRVL [COB] | 1.1 ± 0.12 | 1.3 ± 0.13 | – | 1.6 ± 0.15
6 | HMATALQIAQLTLKHRQ [RPN10] | 1.8 ± 0.084 | 1.59 ± 0.11 | 1.62 ± 0.068 | 1.58 ± 0.13
7 | HMDYDGNIVKEFENKFQ [YMR129W/POM152] | 3.33 ± 0.082 | 3.36 ± 0.049 | 3.22 ± 0.055 | 3.28 ± 0.069
8 | HNGAPHHAIEEAESLLQ [RPO21] | 3.39 ± 0.18 | 2.66 ± 0.29 | 3 ± 0.088 | 3.07 ± 0.12
9 | HPAYLFKGLETPLKARQ [YLR018C/POM34] | 2.26 ± 0.057 | 1.36 ± 0.077 | 2.08 ± 0.043 | 2.16 ± 0.073
10 | HPPDFKRMLLSLSEFAR [SNF2] | 1.33 ± 0.036 | 1.26 ± 0.064 | 1.27 ± 0.023 | 1.32 ± 0.038
11 | HPTVVDAIDNSDEITQD [IRR1] | 3.17 ± 0.071 | 3.23 ± 0.068 | 3.15 ± 0.052 | 3.22 ± 0.093
12 | HQSELIIKQTVHPIPDV [YMR129W/POM152] | 2.86 ± 0.055 | 2.55 ± 0.071 | 2.27 ± 0.061 | 2.74 ± 0.066
13 | HRDAYSGGSVNLYHVTE [PRE2] | 3.32 ± 0.086 | 3 ± 0.07 | 3.03 ± 0.073 | 2.81 ± 0.11
14 | HRVAENWRKQKGIDSVV [RPL32] | 2.61 ± 0.17 | – | 2.25 ± 0.18 | 2.55 ± 0.099
15 | HRWGTKKLPRKTHRGLR [RPL3] | 3.04 ± 0.13 | 3.12 ± 0.084 | 3.34 ± 0.061 | 3.32 ± 0.11
16 | HSKRELDSGDDQPQSSE [BRR2] | 3.38 ± 0.069 | 3.18 ± 0.057 | 3.19 ± 0.051 | 3.33 ± 0.073
17 | HSNESSNETIGEIQLLF [IRR1] | 2.83 ± 0.14 | 3.27 ± 0.082 | 2.92 ± 0.084 | 2.68 ± 0.11
18 | HSSSVFKGTDFVHSVKK [SRB4] | 2.93 ± 0.074 | 3.15 ± 0.048 | 2.99 ± 0.056 | 2.75 ± 0.073
19 | HTATDIYQTLIALNLDT [SNF2] | 2.36 ± 0.034 | 1.88 ± 0.046 | 1.93 ± 0.024 | 2.11 ± 0.032
20 | HTDVSSSLEARYFFYLS [RPN3] | 3.23 ± 0.1 | 2.72 ± 0.11 | 2.85 ± 0.076 | 2.68 ± 0.083
21 | HTLDIINVLTDQNPIQV [RPS5] | 2.33 ± 0.077 | 2.12 ± 0.096 | 1.86 ± 0.055 | 1.88 ± 0.066
22 | HTSSSDGNNEIFTCQIM [RPN4] | 2.89 ± 0.082 | 3.08 ± 0.064 | 2.86 ± 0.086 | 2.57 ± 0.094
23 | HVIQIPLNKPLLTEELA [TAF14] | 2.39 ± 0.037 | 2.49 ± 0.053 | 2.32 ± 0.039 | 2.2 ± 0.053
24 | HWPLNWYLILSIISSKT [RGR1] | 1.5 ± 0.08 | 1.4 ± 0.21 | 1.18 ± 0.067 | 1.57 ± 0.1
25 | HYLFNTFTFTAHMGVLL [SWP82] | 1.68 ± 0.036 | 1.39 ± 0.072 | 1.51 ± 0.024 | 1.69 ± 0.039

Row | Sequence | protein stability index (pdr5∆) | protein stability index (san1∆) | protein stability index (ubr1∆) | protein stability index (doa10∆)
26 | IAAERAARKAANKEKRA [RPL7B] | 3.59 ± 0.21 | 3.28 ± 0.22 | 3.3 ± 0.17 | 3.27 ± 0.16
27 | IAAMVAQKCGWTIPHKK [SIR2] | 2.41 ± 0.2 | 2.06 ± 0.15 | 2.35 ± 0.051 | 2.33 ± 0.096
28 | IAARRTGLLRGSQKTQD [RPL2A] | 2.73 ± 0.064 | 2.66 ± 0.075 | 2.68 ± 0.079 | 2.83 ± 0.095
29 | IADSTHVKRITKIAQSQ [ECM29] | 1.71 ± 0.059 | 1.3 ± 0.12 | 1.38 ± 0.044 | 1.86 ± 0.097
30 | IAEGQKKFATVPTGGAS [RPP2B] | 2.89 ± 0.056 | 2.69 ± 0.06 | 2.53 ± 0.04 | 2.81 ± 0.057
31 | IAFASNYGIVELDPECQ [RRP43] | 2.68 ± 0.055 | 2.54 ± 0.059 | 2.53 ± 0.08 | 2.34 ± 0.083
32 | IAIIKDTSDIIVDPTAE [RRP46] | 1.92 ± 0.047 | 1.71 ± 0.078 | 1.61 ± 0.046 | 1.86 ± 0.044
33 | IAKATKEFKGIKVTVQL [RPL12A] | – | – | 3.35 ± 0.18 | –
34 | IAKFERSEEEVTKLNVL [YIL149C/MLP2] | 3.46 ± 0.093 | 3.31 ± 0.051 | 3.4 ± 0.069 | 3.4 ± 0.13
35 | IAKTFTVDVSSPTENGV [RPL22A] | 3 ± 0.1 | 2.9 ± 0.094 | 2.99 ± 0.077 | 3.04 ± 0.11
36 | IALNLASKKFGKICLIL [SSN2] | 2.83 ± 0.062 | 2.9 ± 0.071 | 3.12 ± 0.061 | 2.41 ± 0.11
37 | IAVLIELLEERFQDSNP [YCS4] | 2.06 ± 0.058 | 2.66 ± 0.063 | 2.82 ± 0.069 | 1.62 ± 0.032
38 | ICEDPETAKKITFHPKI [SMC2] | 2.74 ± 0.084 | 2.16 ± 0.28 | 2.9 ± 0.077 | 2.84 ± 0.1
39 | IDAALDKQYRTAVATLL [SMC3] | 2.17 ± 0.079 | 2.65 ± 0.12 | 2.82 ± 0.081 | 1.87 ± 0.093
40 | IDEDKLYPSFKPIYKDT [SSN2] | 3.04 ± 0.11 | 3 ± 0.053 | 3.17 ± 0.092 | 2.99 ± 0.095
41 | IDESLFNLLILSLNKRI [YCG1] | 2.25 ± 0.062 | 2.03 ± 0.077 | 2.15 ± 0.033 | 2.75 ± 0.072
42 | IDEVFSWYLNTFDGIRM [GRR1] | 1.83 ± 0.039 | 2.14 ± 0.062 | 1.88 ± 0.039 | 2.42 ± 0.049
43 | IDFAPTSPFGGARPGRV [RPS9A] | 2.53 ± 0.074 | 2.62 ± 0.074 | 2.74 ± 0.05 | 2.82 ± 0.072
44 | IDFFKTDDSFEDKVFAS [BRN1] | 2.88 ± 0.06 | 3 ± 0.093 | 2.89 ± 0.06 | 3.02 ± 0.13
45 | IDKLEDLSRIMDWLDNW [ITC1] | 2.67 ± 0.23 | – | – | 2.58 ± 0.29
46 | IDKNHGFERLTVNEPQM [SRB7] | 3.25 ± 0.075 | 3.23 ± 0.14 | 3.02 ± 0.052 | 3.03 ± 0.094
47 | IDLCHDFPHLTPKLQTQ [YCS4] | 2.65 ± 0.038 | 2.63 ± 0.042 | 2.49 ± 0.035 | 2.6 ± 0.042
48 | IDLLTFQYGSRLPTFLK [RPP1] | 1.84 ± 0.052 | 1.6 ± 0.081 | 1.57 ± 0.047 | 1.89 ± 0.064
49 | IDLLWKGKTPKNAAESS [PRP28] | 3.12 ± 0.18 | 2.91 ± 0.15 | 3.14 ± 0.13 | 2.86 ± 0.17
